Source: the supplement of paper PMC7877785
± gives the uncertainty stated by the source.

Assay: self-splicing fitness, log relative to wild type (ln ratio); higher = more splicing; Tetrahymena group I intron in knt gene, E. coli kanamycin selection, DiMSum; sequences stand for … in CUCUCU…GGAGGGAAAAGUUAUCAGGCAUGCACCUGGUAGCUAGUCUUUAAACCAAUAGAUUGCAUCGGUUUAAAAGGCAAGACCGUCAAAUUGCGGGAAAGGGGUCAACAGCCGUUCAGUACCAAGUCUCAGGGGAAACUUUGAGAUGGCCUUGCAAAGGGUAUGGUAAUAAGCUGACGGACAUGGUCCUAACCACGCAGCCAAGUCCUAAGUCAACAGAUCUUCUGUUGAUAUGGAUGCAGUUCACAGACUAAAUGUCGGUCGGGGAAGAUGUAUUCUUCUCAUAAGAUAUAGUCGGACCUCUCCUUAAUGGGAGCUAGCGGAUGAAGUGAUGCAACACUGGAGCCGCUGGGAACUAAUUUGUAUGCGAAAGUAUAUUGAUUAGUUUUGGAGUACUCGUGGUCG
Procedure, shortened: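 DiMSum derived fitness as the error-weighted combination of fold changes across replicates, kanamycin versus no kanamycin, normalised to wild type. E. coli BL21(DE3) held the library, which randomised all eight P1ex-region intron nucleotides within the knt kanamycin-resistance gene on pET-22b(+). Six replicate transformations grew overnight at 37°C or 30°C on LB agar with or without 25 μg/mL kanamycin, also containing 100 μg/mL carbenicillin, 50 μM IPTG and 0.2% rhamnose, and pooled colonies were amplicon-sequenced on an Illumina HiSeq 2500.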

| Sequence | self-splicing fitness (ln) (30 °C) | self-splicing fitness (ln) (37 °C) |
| --- | --- | --- |
| AACAAGCAAUAUUACGCAAG | -1.88 ± 0.084 | -0.493 ± 0.086 |
| AACAAGCAAUAUUACGCGGC | -3.28 ± 0.26 | -1.71 ± 0.19 |
| AACAAGCAAUAUUACGCGUU | -3.91 ± 0.2 | -3.32 ± 0.18 |
| AACAAGCAAUAUUACGCUUA | -2.08 ± 0.1 | -1.21 ± 0.1 |
| AACAAGCAAUAUUACGGAAG | -3.98 ± 0.18 | -2.74 ± 0.15 |
| AACAAGCAAUAUUACGGACA | -1.6 ± 0.094 | 0.312 ± 0.095 |
| AACAAGCAAUAUUACGGACC | -1.84 ± 0.1 | -0.201 ± 0.11 |
| AACAAGCAAUAUUACGGCGC | -0.737 ± 0.1 | 0.0559 ± 0.12 |
| AACAAGCAAUAUUACGUAAG | -1.93 ± 0.058 | -1.16 ± 0.077 |
| AACAAGCAAUAUUACGUCAC | -3.77 ± 0.22 | -2.29 ± 0.23 |
| AACAAGCAAUAUUACGUGAU | -2.2 ± 0.069 | -1.46 ± 0.08 |
| AACAAGCAAUAUUACGUUAA | -2.55 ± 0.15 | -1.67 ± 0.14 |
| AACAAGCAAUAUUACGUUAG | -4.21 ± 0.22 | -3.26 ± 0.24 |
| AACAAGCAAUAUUACGUUCA | -1.41 ± 0.053 | -0.805 ± 0.063 |
| AACCAGCAAUAUUACGAAGC | -3.37 ± 0.13 | -0.929 ± 0.099 |
| AACCAGCAAUAUUACGAUAU | -0.891 ± 0.057 | -0.0726 ± 0.089 |
| AACCAGCAAUAUUACGAUUG | -3.19 ± 0.15 | -1.48 ± 0.11 |
| AACCAGCAAUAUUACGCACC | 0.0606 ± 0.077 | 0.308 ± 0.1 |
| AACCAGCAAUAUUACGCAGA | -1.76 ± 0.11 | -1.37 ± 0.11 |
| AACCAGCAAUAUUACGCUCC | -0.493 ± 0.094 | -0.0692 ± 0.12 |
| AACCAGCAAUAUUACGGAAC | -2.13 ± 0.091 | -1.04 ± 0.088 |
| AACCAGCAAUAUUACGGACG | 0.131 ± 0.059 | -0.143 ± 0.07 |
| AACCAGCAAUAUUACGGAUA | -0.931 ± 0.069 | -0.176 ± 0.074 |
| AACCAGCAAUAUUACGGAUG | -0.77 ± 0.058 | -0.508 ± 0.072 |
| AACCAGCAAUAUUACGGCGA | -0.304 ± 0.075 | 0.19 ± 0.11 |

| Sequence | self-splicing fitness (ln) (30 °C) | self-splicing fitness (ln) (37 °C) |
| --- | --- | --- |
| AACCAGCAAUAUUACGGGCG | -0.173 ± 0.068 | 0.356 ± 0.081 |
| AACCAGCAAUAUUACGGGGA | -2.46 ± 0.097 | -1.09 ± 0.089 |
| AACCAGCAAUAUUACGGGUG | -1.14 ± 0.046 | -0.409 ± 0.064 |
| AACCAGCAAUAUUACGGUCU | -0.594 ± 0.048 | -0.249 ± 0.066 |
| AACCAGCAAUAUUACGUAAG | -1.28 ± 0.059 | -0.259 ± 0.072 |
| AACCAGCAAUAUUACGUAUG | -2 ± 0.076 | -0.882 ± 0.072 |
| AACCAGCAAUAUUACGUCCA | -0.505 ± 0.061 | -0.595 ± 0.068 |
| AACCAGCAAUAUUACGUUUA | -1.01 ± 0.062 | -0.649 ± 0.074 |
| AACCAGCAAUAUUACGUUUC | -4.08 ± 0.17 | -2.92 ± 0.21 |
| AACGAGCAAUAUUACGAAAC |  | -2.37 ± 0.22 |
| AACGAGCAAUAUUACGAAGC | -3.92 ± 0.42 | -1.91 ± 0.37 |
| AACGAGCAAUAUUACGAGUC |  | -2.63 ± 0.44 |
| AACGAGCAAUAUUACGAUCU | -0.758 ± 0.088 | -0.0761 ± 0.1 |
| AACGAGCAAUAUUACGCAGC | -2.29 ± 0.29 |  |
| AACGAGCAAUAUUACGCAGU | -2.87 ± 0.23 | -2.52 ± 0.29 |
| AACGAGCAAUAUUACGCGCC | -2.77 ± 0.3 | -2.61 ± 0.48 |
| AACGAGCAAUAUUACGCUAG | -3.61 ± 0.25 | -2.92 ± 0.43 |
| AACGAGCAAUAUUACGCUUA | -2.86 ± 0.26 | -1.31 ± 0.2 |
| AACGAGCAAUAUUACGGCGC | -2.14 ± 0.18 | -1.31 ± 0.16 |
| AACGAGCAAUAUUACGGCUC | -2.49 ± 0.44 |  |
| AACGAGCAAUAUUACGGGGC | -4.03 ± 0.27 | -3.46 ± 0.35 |
| AACGAGCAAUAUUACGGUCA | -2.05 ± 0.21 | -1.12 ± 0.2 |
| AACGAGCAAUAUUACGGUUA | -1.84 ± 0.18 | -0.413 ± 0.15 |
| AACGAGCAAUAUUACGGUUU | -2.07 ± 0.079 | -0.83 ± 0.089 |
| AACGAGCAAUAUUACGUAUU | -3.1 ± 0.16 | -1.85 ± 0.14 |

| Sequence | self-splicing fitness (ln) (30 °C) | self-splicing fitness (ln) (37 °C) |
| --- | --- | --- |
| AACGAGCAAUAUUACGUCCG |  | -2.07 ± 0.29 |
| AACGAGCAAUAUUACGUCGA |  | -2.06 ± 0.21 |
| AACGAGCAAUAUUACGUGAA | -3.48 ± 0.19 | -3.65 ± 0.24 |
| AACGAGCAAUAUUACGUUGC | -4.01 ± 0.18 | -3.16 ± 0.19 |
| AACGAGCAAUAUUACGUUUC | -3.05 ± 0.19 | -2.42 ± 0.19 |
| AACUAGCAAUAUUACGAAGC | -2.35 ± 0.4 | -0.29 ± 0.35 |
| AACUAGCAAUAUUACGAAGU | -3.67 ± 0.3 | -2 ± 0.13 |
| AACUAGCAAUAUUACGAGAC | -1.96 ± 0.44 |  |
| AACUAGCAAUAUUACGAGAG | -3.61 ± 0.12 | -1.84 ± 0.11 |
| AACUAGCAAUAUUACGAGCG | -0.883 ± 0.089 | -0.592 ± 0.098 |
| AACUAGCAAUAUUACGCAAA | -2.38 ± 0.13 | -1.72 ± 0.1 |
| AACUAGCAAUAUUACGCAAU | -2.35 ± 0.13 | -2.15 ± 0.16 |
| AACUAGCAAUAUUACGCACA | -0.559 ± 0.061 | 0.145 ± 0.077 |
| AACUAGCAAUAUUACGCUAA | -2.06 ± 0.11 | -1.51 ± 0.12 |
| AACUAGCAAUAUUACGCUGU | -3.41 ± 0.16 | -3.84 ± 0.32 |
| AACUAGCAAUAUUACGGAAC | -2.99 ± 0.21 | -2.08 ± 0.3 |
| AACUAGCAAUAUUACGGACU | -1.36 ± 0.24 | 0.037 ± 0.28 |
| AACUAGCAAUAUUACGGCAG | -1.09 ± 0.094 | -0.755 ± 0.095 |
| AACUAGCAAUAUUACGGCCC | -1.6 ± 0.17 | -0.325 ± 0.24 |
| AACUAGCAAUAUUACGGGCU | -1.29 ± 0.11 | -1.19 ± 0.16 |
| AACUAGCAAUAUUACGGUAU | -1.31 ± 0.072 | -0.479 ± 0.092 |
| AACUAGCAAUAUUACGGUUA | -0.722 ± 0.084 | -0.482 ± 0.083 |
| AACUAGCAAUAUUACGUACC | -1.14 ± 0.1 | -0.0487 ± 0.14 |
| AACUAGCAAUAUUACGUAUG | -3.11 ± 0.11 | -1.22 ± 0.11 |
| AACUAGCAAUAUUACGUGCA | -0.72 ± 0.054 | -0.578 ± 0.065 |

| Sequence | self-splicing fitness (ln) (30 °C) | self-splicing fitness (ln) (37 °C) |
| --- | --- | --- |
| AACUAGCAAUAUUACGUGGA | -2.28 ± 0.11 | -1.61 ± 0.1 |
| AACUAGCAAUAUUACGUUAU | -2.63 ± 0.11 | -1.75 ± 0.12 |
| AACUAGCAAUAUUACGUUGA | -1.52 ± 0.11 | -1.04 ± 0.12 |
| AAGAAGCAAUAUUACGAAAC | -1.82 ± 0.17 | -0.859 ± 0.15 |
| AAGAAGCAAUAUUACGAAAG | -3.5 ± 0.21 | -1.69 ± 0.13 |
| AAGAAGCAAUAUUACGACGU | -0.168 ± 0.068 | 0.298 ± 0.1 |
| AAGAAGCAAUAUUACGAGAG | -4.49 ± 0.36 | -2.41 ± 0.2 |
| AAGAAGCAAUAUUACGAGUG | -2.04 ± 0.12 | -1.23 ± 0.13 |
| AAGAAGCAAUAUUACGAUGA | -0.962 ± 0.096 | -0.249 ± 0.09 |
| AAGAAGCAAUAUUACGAUUA | -0.809 ± 0.11 | 0.095 ± 0.11 |
| AAGAAGCAAUAUUACGCACU | -0.114 ± 0.063 | -0.103 ± 0.081 |
| AAGAAGCAAUAUUACGCCAA | -2.24 ± 0.25 | -1.04 ± 0.21 |
| AAGAAGCAAUAUUACGCCCC | -0.875 ± 0.12 | -0.358 ± 0.17 |
| AAGAAGCAAUAUUACGCCUU | -3.53 ± 0.4 | -2.17 ± 0.33 |
| AAGAAGCAAUAUUACGCUAG | -2.36 ± 0.14 | -0.458 ± 0.13 |
| AAGAAGCAAUAUUACGCUCU | -3.54 ± 0.24 | -1.37 ± 0.18 |
| AAGAAGCAAUAUUACGCUGA | -2.47 ± 0.14 | -2.04 ± 0.18 |
| AAGAAGCAAUAUUACGGAGA | -3.38 ± 0.19 | -2.62 ± 0.2 |
| AAGAAGCAAUAUUACGGCAC | -0.764 ± 0.08 | -0.298 ± 0.12 |
| AAGAAGCAAUAUUACGGCAU | 0.143 ± 0.12 | -0.43 ± 0.16 |
| AAGAAGCAAUAUUACGGCCC | -0.651 ± 0.13 | -0.518 ± 0.16 |
| AAGAAGCAAUAUUACGGGAA | -1.79 ± 0.14 | -1.85 ± 0.13 |
